# According to paper PMC12102759 (2025):
# B1: PEX5 peptide 110-125 (Peroxisomal targeting signal 1 receptor), 16-mer library wild type / PEX14 Pex14 (PEX14 PEX14, residues 16-84) (parent complex)
# chain 1: ADLALSENWAQEFLAA
# chain 2: TPGSENVLPREPLIATAVKFLQNSRVRQSPLATRRAFLKKKGLTDEEIDMAFQQSGTAADEPSSLGPAT
# Variants of: B1
# Test: proteomic peptide phage display deep mutational scan (ProP-PD DMS): M13 P8 16-mer library selected against immobilised GST-tagged bait for four days (rounds), NGS of the eluted pools per day and pseudo-replica; bait immobilised on MaxiSorp plates (10 µg), library pre-cleared on GST, 2 h binding at 4 °C, five washes; one round per day, days 1-4; value from days 2 and 3
row,Variant,screen value
1,chain 1 ADLAYSENWAQEFLAA [chain 1 L5Y],"0.00132 average fractional NGS count over selection days 2 and 3 (reads of this peptide / all reads for the bait, averaged over …"
2,chain 1 ADLAHSENWAQEFLAA [chain 1 L5H],"0.00347 average fractional NGS count over selection days 2 and 3 (reads of this peptide / all reads for the bait, averaged over …"
3,chain 1 ADLAMSENWAQEFLAA [chain 1 L5M],"0.000827 average fractional NGS count over selection days 2 and 3 (reads of this peptide / all reads for the bait, averaged over …"
4,chain 1 ADLAQSENWAQEFLAA [chain 1 L5Q],"0.000395 average fractional NGS count over selection days 2 and 3 (reads of this peptide / all reads for the bait, averaged over …"
5,chain 1 ADLAASENWAQEFLAA [chain 1 L5A],"0.00106 average fractional NGS count over selection days 2 and 3 (reads of this peptide / all reads for the bait, averaged over …"
6,chain 1 ADLATSENWAQEFLAA [chain 1 L5T],"0.000402 average fractional NGS count over selection days 2 and 3 (reads of this peptide / all reads for the bait, averaged over …"
7,chain 1 ADLAKSENWAQEFLAA [chain 1 L5K],"0.000511 average fractional NGS count over selection days 2 and 3 (reads of this peptide / all reads for the bait, averaged over …"
8,chain 1 ADLAPSENWAQEFLAA [chain 1 L5P],"0.000702 average fractional NGS count over selection days 2 and 3 (reads of this peptide / all reads for the bait, averaged over …"
9,chain 1 ADLALSENWHQEFLAA [chain 1 A10H],"0.013 average fractional NGS count over selection days 2 and 3 (reads of this peptide / all reads for the bait, averaged over …"
10,chain 1 ADLALSENWYQEFLAA [chain 1 A10Y],"0.0104 average fractional NGS count over selection days 2 and 3 (reads of this peptide / all reads for the bait, averaged over …"
11,chain 1 ADLALSENWEQEFLAA [chain 1 A10E],"0.000658 average fractional NGS count over selection days 2 and 3 (reads of this peptide / all reads for the bait, averaged over …"
12,chain 1 ADLALSENWTQEFLAA [chain 1 A10T],"0.000469 average fractional NGS count over selection days 2 and 3 (reads of this peptide / all reads for the bait, averaged over …"
13,chain 1 ADLALSENWRQEFLAA [chain 1 A10R],"0.000397 average fractional NGS count over selection days 2 and 3 (reads of this peptide / all reads for the bait, averaged over …"
14,chain 1 ADLALSENWGQEFLAA [chain 1 A10G],"0.00143 average fractional NGS count over selection days 2 and 3 (reads of this peptide / all reads for the bait, averaged over …"
15,chain 1 ADLALNENWAQEFLAA [chain 1 S6N],"0.000624 average fractional NGS count over selection days 2 and 3 (reads of this peptide / all reads for the bait, averaged over …"
16,chain 1 ADLALRENWAQEFLAA [chain 1 S6R],"0.00161 average fractional NGS count over selection days 2 and 3 (reads of this peptide / all reads for the bait, averaged over …"
17,chain 1 ADLALFENWAQEFLAA [chain 1 S6F],"0.00174 average fractional NGS count over selection days 2 and 3 (reads of this peptide / all reads for the bait, averaged over …"
18,chain 1 ADLALLENWAQEFLAA [chain 1 S6L],"0.00108 average fractional NGS count over selection days 2 and 3 (reads of this peptide / all reads for the bait, averaged over …"
19,chain 1 ADLALEENWAQEFLAA [chain 1 S6E],"0.00164 average fractional NGS count over selection days 2 and 3 (reads of this peptide / all reads for the bait, averaged over …"

row,Variant,screen value
1,chain 1 ADLALGENWAQEFLAA [chain 1 S6G],"0.000749 average fractional NGS count over selection days 2 and 3 (reads of this peptide / all reads for the bait, averaged over …"
2,chain 1 ADLALSENWALEFLAA [chain 1 Q11L],"0.00081 average fractional NGS count over selection days 2 and 3 (reads of this peptide / all reads for the bait, averaged over …"
3,chain 1 ADLALSENWAYEFLAA [chain 1 Q11Y],"0.000918 average fractional NGS count over selection days 2 and 3 (reads of this peptide / all reads for the bait, averaged over …"
4,chain 1 ADLALSENWAWEFLAA [chain 1 Q11W],"0.0122 average fractional NGS count over selection days 2 and 3 (reads of this peptide / all reads for the bait, averaged over …"
5,chain 1 ADLALSENWAFEFLAA [chain 1 Q11F],"0.000569 average fractional NGS count over selection days 2 and 3 (reads of this peptide / all reads for the bait, averaged over …"
6,chain 1 ADLALSENWAHEFLAA [chain 1 Q11H],"0.00141 average fractional NGS count over selection days 2 and 3 (reads of this peptide / all reads for the bait, averaged over …"
7,chain 1 ADLALSENWAQIFLAA [chain 1 E12I],"0.00181 average fractional NGS count over selection days 2 and 3 (reads of this peptide / all reads for the bait, averaged over …"
8,chain 1 ADLALSENWAQWFLAA [chain 1 E12W],"0.0033 average fractional NGS count over selection days 2 and 3 (reads of this peptide / all reads for the bait, averaged over …"
9,chain 1 ADLALSENWAQHFLAA [chain 1 E12H],"0.00205 average fractional NGS count over selection days 2 and 3 (reads of this peptide / all reads for the bait, averaged over …"
10,chain 1 ADLALSENWAQMFLAA [chain 1 E12M],"0.000654 average fractional NGS count over selection days 2 and 3 (reads of this peptide / all reads for the bait, averaged over …"
11,chain 1 ADLALSENWAQVFLAA [chain 1 E12V],"0.00245 average fractional NGS count over selection days 2 and 3 (reads of this peptide / all reads for the bait, averaged over …"
12,chain 1 ADLALSENWAQPFLAA [chain 1 E12P],"0.000686 average fractional NGS count over selection days 2 and 3 (reads of this peptide / all reads for the bait, averaged over …"
13,chain 1 ADLALSENWAQSFLAA [chain 1 E12S],"0.00196 average fractional NGS count over selection days 2 and 3 (reads of this peptide / all reads for the bait, averaged over …"
14,chain 1 ADLALSENWAQEYLAA [chain 1 F13Y],"0.00124 average fractional NGS count over selection days 2 and 3 (reads of this peptide / all reads for the bait, averaged over …"
15,chain 1 ADLALSENWAQERLAA [chain 1 F13R],"0.000386 average fractional NGS count over selection days 2 and 3 (reads of this peptide / all reads for the bait, averaged over …"
16,chain 1 ADLALSENWAQEWLAA [chain 1 F13W],"0.000735 average fractional NGS count over selection days 2 and 3 (reads of this peptide / all reads for the bait, averaged over …"
17,chain 1 ADLALSENWAQEHLAA [chain 1 F13H],"0.00342 average fractional NGS count over selection days 2 and 3 (reads of this peptide / all reads for the bait, averaged over …"
18,chain 1 ADLALSENWAQEILAA [chain 1 F13I],"0.000603 average fractional NGS count over selection days 2 and 3 (reads of this peptide / all reads for the bait, averaged over …"
19,chain 1 ADLTLSENWAQEFLAA [chain 1 A4T],"0.00418 average fractional NGS count over selection days 2 and 3 (reads of this peptide / all reads for the bait, averaged over …"

row,Variant,screen value
1,chain 1 ADLNLSENWAQEFLAA [chain 1 A4N],"0.000393 average fractional NGS count over selection days 2 and 3 (reads of this peptide / all reads for the bait, averaged over …"
2,chain 1 ADLVLSENWAQEFLAA [chain 1 A4V],"0.000411 average fractional NGS count over selection days 2 and 3 (reads of this peptide / all reads for the bait, averaged over …"
3,chain 1 ADLILSENWAQEFLAA [chain 1 A4I],"0.000694 average fractional NGS count over selection days 2 and 3 (reads of this peptide / all reads for the bait, averaged over …"
4,chain 1 ADLHLSENWAQEFLAA [chain 1 A4H],"0.00244 average fractional NGS count over selection days 2 and 3 (reads of this peptide / all reads for the bait, averaged over …"
5,chain 1 ADLPLSENWAQEFLAA [chain 1 A4P],"0.00132 average fractional NGS count over selection days 2 and 3 (reads of this peptide / all reads for the bait, averaged over …"
6,chain 1 ADLLLSENWAQEFLAA [chain 1 A4L],"0.000672 average fractional NGS count over selection days 2 and 3 (reads of this peptide / all reads for the bait, averaged over …"
7,chain 1 TDLALSENWAQEFLAA [chain 1 A1T],"0.00109 average fractional NGS count over selection days 2 and 3 (reads of this peptide / all reads for the bait, averaged over …"
8,chain 1 NDLALSENWAQEFLAA [chain 1 A1N],"0.00108 average fractional NGS count over selection days 2 and 3 (reads of this peptide / all reads for the bait, averaged over …"
9,chain 1 FDLALSENWAQEFLAA [chain 1 A1F],"0.00127 average fractional NGS count over selection days 2 and 3 (reads of this peptide / all reads for the bait, averaged over …"
10,chain 1 YDLALSENWAQEFLAA [chain 1 A1Y],"0.000485 average fractional NGS count over selection days 2 and 3 (reads of this peptide / all reads for the bait, averaged over …"
11,chain 1 GDLALSENWAQEFLAA [chain 1 A1G],"0.000525 average fractional NGS count over selection days 2 and 3 (reads of this peptide / all reads for the bait, averaged over …"
12,chain 1 PDLALSENWAQEFLAA [chain 1 A1P],"0.000566 average fractional NGS count over selection days 2 and 3 (reads of this peptide / all reads for the bait, averaged over …"
13,chain 1 EDLALSENWAQEFLAA [chain 1 A1E],"0.00113 average fractional NGS count over selection days 2 and 3 (reads of this peptide / all reads for the bait, averaged over …"
14,chain 1 ADLALSLNWAQEFLAA [chain 1 E7L],"0.00102 average fractional NGS count over selection days 2 and 3 (reads of this peptide / all reads for the bait, averaged over …"
15,chain 1 ADLALSSNWAQEFLAA [chain 1 E7S],"0.00412 average fractional NGS count over selection days 2 and 3 (reads of this peptide / all reads for the bait, averaged over …"
16,chain 1 ADLALSMNWAQEFLAA [chain 1 E7M],"0.0015 average fractional NGS count over selection days 2 and 3 (reads of this peptide / all reads for the bait, averaged over …"
17,chain 1 ADLALSNNWAQEFLAA [chain 1 E7N],"0.00129 average fractional NGS count over selection days 2 and 3 (reads of this peptide / all reads for the bait, averaged over …"
18,chain 1 ADLALSRNWAQEFLAA [chain 1 E7R],"0.00247 average fractional NGS count over selection days 2 and 3 (reads of this peptide / all reads for the bait, averaged over …"
